Patent publication US20090053761A1, “Polypeptide Mutagenesis Method” (University College Cardiff Consultants Ltd., priority 2005, published 2009)

Tested on: E. coli
Assay: TEM-1 β-lactamase activity in vivo: ampicillin MIC of BLA DEL library colonies
Assay type: cell-based, Escherichia coli DH5α
Settings: minimum ampicillin concentration preventing growth of E. coli DH5α carrying the bla variant in pNOM; LB agar, 37° C., 16 hr
Procedure: The MuDel-inserted pNOM plasmids were isolated from each of the 22 colonies and equal amounts of each plasmid were pooled and subjected to restriction digestion with MlyI followed by agarose gel electrophoresis. The band corresponding to the linear pNOM minus MuDel was isolated and purified after agarose gel electrophoresis. Intramolecular ligation was performed using T4 DNA ligase and approximately 10 ng of linear pNOM (reaction conditions described above). The reaction was left at 25° C. for 10 min followed by 10 hr at 16° C. E. coli DH5α cells were transformed by electroporation with 1 μl of the ligation mixture. 500 μl of SOC medium was added to the cells immediately after electroporation and the cells were incubated at 37° C. for 1 hr. 50 μl and 500 μl of the recovering transformed cell cultures were plated on LB agar plates containing 15 μg/ml ampicillin. The plates were left overnight at 37° C. and 94 BLA^DEL library and two pNOM-containing colonies were selected and transferred to 96 deep-well culture plates containing 200 μl LB medium and 15 μg/ml ampicillin. The cells were grown for 16 hr at 37° C. with vigorous shaking. Sterile glycerol was added to 10% (v/v) for storage at −80° C.
The TEM-1 β-lactamase activity of each colony was measured in vivo by determining the minimum inhibitory concentration (MIC) of ampicillin that prevents E. coli growth. […]

B1: Wild-type (pNOM): wild-type TEM-1 β-lactamase encoded by the bla gene of pNOM, control (protein, UniProt P62593 24-286, looked up)
Beta-lactamase TEM: HPETLVKVKDAEDQLGARVGYIELDLNSGKILESFRPEERFPMMSTFKVLLCGAVLSRVDAGQEQLGRRIHYSQNDLVEYSPVTEKHLTDGMTVRELCSAAITMSDNTAANLLLTTIGGPKELTAFLHNMGDHVTRLDRWEPELNEAIPNDERDTTMPAAMATTLRKLLTGELLTLASRQQLIDWMEADKVAGPLLRSALPAGWFIADKSGAGERGSRGIIAALGPDGKPSRIVVIYTTGSQATMDERNRQIAEIGASLIKHW
Amp MIC: > 10000 µg/mL
